Measured values as given in the supplement of paper PMC9170038.

Tested on: MS2 coat protein
Assay: apparent KD of MS2 coat protein; designed switch direction (-1 OFF switch, 1 ON switch): -1; higher = weaker reporter binding
Method in brief: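 On Illumina chips, designed RNA switches with common flanks were made by stalled E. coli RNA polymerase. Titrations with SNAP-549-labelled MS2 coat protein, doubling from 0.7 or 1.5 nM to 3 µM, were done with no input, with 200 uM small-molecule ligand, or with an oligonucleotide input. Apparent KD is the median per design over clusters, from curve fits of normalised cluster fluorescence.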

[1] = input ligand: microRNA oligo, concentration not stated
[2] = Eterna round: R95, input ligand: FMN 200 uM
[3] = Eterna round: R95, input ligand: microRNA oligo, concentration not stated
[4] = Eterna round: R95, input ligand: none

Sequence | apparent KD of MS2 coat protein (input ligand: FMN 200 uM) [µM] | apparent KD of MS2 coat protein [1] [µM] | apparent KD of MS2 coat protein (input ligand: none) [µM] | apparent KD of MS2 coat protein [2] [µM] | apparent KD of MS2 coat protein [3] [µM] | apparent KD of MS2 coat protein [4] [µM]
AACCUGAGGCAUAGCUUUAGGUUUACAUGAGGAUCACCCAUGUAGGAUAUGGUAGGCAUAGCUUACCAGAAGGACAUGAAAAUU [Mat - Exclusion NG 3 - Mod of JL - D30] (Eterna round: R96, puzzle: Exclusion NG 3) | 0.417 | 0.0479 | 0.0556 |  |  | 
UUUAUGUGAGGAUAUGCGGGCGGGCGUGAAAAUGUUUGUUUGUAGAAGGUACAUGAGGAUCACCCAUGUAGUGG [-22, -21.6 kcal, 24% A] (Eterna round: R97, puzzle: Exclusion 4) | 0.18 |  | 0.0572 |  |  | 
AGUAACUAUCACGAAAGUGAUAGUUACAAACAGGUGAAAACAUGAGGAUCACCCAUGUCCUCAUUUGCUCGUCUUAU [Sensor 3 - 8] (puzzle: Sensor v3, turn-off variant 2) |  |  |  | 0.213 | 0.0645 | 0.24
AUGGACGCAGGAUAUACAUGAGGAUCACCCAUGUGAGGUUGGUAAGUAGGAAGUGAAGGUAGAAGGGCGAGAGU [JR_Exclu3_Sub098] (puzzle: Exclusion 3) |  |  |  | 0.209 | 0.0842 | 0.0768
ACAAGCUUAAUCAGUAAGAACAUGAGGAUCACCCAUGUAAAUGAAAGGACUAUUGGGUUAUUUAAAGCUCGUCUUAU [JR_STOV1_Sub014] (Eterna round: R97, puzzle: Sensor, turn-off variant 1) | 0.0521 |  | 0.0528 |  |  | 
GUAGAGUCAGGAUAUACGAGAUCGAAAGAUCGGCGAUCCAUACAUGAGGAUCACCCAUGUAGAAGGGACUCUAC [ChP 11-04-2015 #5] (puzzle: Exclusion 2) |  |  |  |  | 0.0142 | 
GUCAUACAUGAGGAUCACCCAUGUGAGGAUAUGAGUGGUGCUGCUAGGUAGUAUAGACUCAGAAGGCGCAUGAU [Malcxlusion 1 - Jieux - Exclusion 1] (Eterna round: R97, puzzle: Exclusion 1) | 0.288 |  | 0.105 |  |  | 
CCAUAGUCAGGAUAUACAUGAGGAUCACCCAUGUAAAAUUUUAAUUUAAUUUGAAGGUGUAGAAGGGACCAACC [Ex3 #30] (Eterna round: R97, puzzle: Exclusion 3) | 0.0263 |  | 0.0332 |  |  | 
GAGCAGUGAGGAUAUACAUGAGGAUCACCCAUGUAAUGGUAGUCGGGAUUAAUUUGGUGUAGAAGGCGCUUAUU [JR_Ex3_Sub021] (Eterna round: R97, puzzle: Exclusion 3) | 0.064 |  | 0.0799 |  |  | 
AGGCGUGCUGAGGAUAUACUACCGGUUGCGAUAGUAGAAGGUAGCACAUGAGGAUCACCCAUGUGGUCAGAUGC [Bequte] (puzzle: Exclusion 6) |  |  |  |  | 0.0191 | 
GUGAGCAGACGGAGAUCCAACAUGAGGAUCACCCAUGUCUCACAAGCUUUUUGCUCGUCUUAUCCUCCUCUGUUCAC [Elimod 22 - Jieux - Sensor, turn-off variant 1] (Eterna round: R97, puzzle: Sensor, turn-off variant 1) | 0.0158 |  | 0.0146 |  |  | 
AAAACCUCUGUCAGGAUAUCCAUGCGUCCAAAAGCGGAGAAGGGACAUGAGGAUCACCCAUGUUAGCAAAAUCA [Ceenxequ] (puzzle: Brourd's mod of Exclusion 4) |  |  |  | 0.119 | 0.0349 | 0.0385
UUGGUUGUGGUAGGAUAUCCGUUGGAAACCGUCGGAGAAGGACCACAGUCACUGGGUCUUUGUCUGGUGGAGUGGAAGAACCAU [pwkr exNG1 F6.20] (Eterna round: R96, puzzle: Exclusion NG 1) | 0.283 | 0.157 | 0.218 |  |  | 
AAGGCGGUAGGAUAUACAUGAGGAUCACCCAUGUGUCGCAUAAUCACAGCAGUACUCUGUAGAAGGACCGUCAG [Eternabot (L2) Solution 100] (Eterna round: R97, puzzle: Exclusion 3) | 0.457 |  | 0.114 |  |  | 
ACAUGUAUUGCAGGAUAUGGGACACAUGAGGAUCACCCAUGUGACCACAUGUAAUGCCACGGGUCUCAGAAGGGUAUGUACAUG [Ex NG2 #43] (Eterna round: R96, puzzle: Exclusion NG 2) | 0.117 | 0.0229 | 0.0266 |  |  | 
CGAGCUAAUGUGAGGAUAUACCUAUGGAUACAUAGGUAGAAGGCACAUGAGGAUCACCCAUGUCCUAUAGCUCG [jl-bmx4-4.55] (Eterna round: R97, puzzle: Brourd's mod of Exclusion 4) | 0.241 |  | 0.304 |  |  | 
GUUAGACAUGAGGAUCACCCAUGUGAGGAUAUGAUGCGAUCGUGCUGACAUGAUCGCAUCAGAAGGCACAUAUG [Mat - Mod of JL D66] (puzzle: Exclusion 1) |  |  |  |  | 0.0957 | 
ACAAGCUCUUUGCAACUUAGUUUUGUUGCUUCGUAGGUAACAUGAGGAUCACCCAUGUAAGAGUGAUGUCGUCUUAU [JR_SV3TOV2_Sub085] (puzzle: Sensor v3, turn-off variant 2) |  |  |  | 0.0658 | 0.0527 | 0.0769
